Patent publication US20070148185A1

Columns and labels:
[1] = target: heparan sulfate proteoglycans (HSPG) expressed on the surface of HepG2 human liver cells (human); assay: 100 nM protein on HepG2 cells pretreated with Heparinase I 1.25 U/ml, against non-treated cells
[2] = target: heparan sulfate proteoglycans (HSPG) expressed on the surface of HepG2 human liver cells (human); assay: 100 nM protein on HepG2 cells pretreated with Heparinase I 5.00 U/ml, against non-treated cells
[3] = target: heparan sulfate proteoglycans (HSPG) expressed on the surface of HepG2 human liver cells (human); assay: 100 nM protein on HepG2 cells pretreated with Heparinase I 2.50 U/ml, against non-treated cells
[4] = target: heparan sulfate proteoglycans (HSPG) expressed on the surface of HepG2 human liver cells (human); assay: binding of His-tagged protein to fixed HepG2 cells, anti-polyhistidine detection
[5] = target: heparan sulfate proteoglycans (HSPG) expressed on the surface of HepG2 human liver cells (human); assay: cell-based or functional assay
[6] = target: heparan sulfate proteoglycans (HSPG) expressed on the surface of HepG2 human liver cells (human); assay: HepG2 cell binding assay with soluble heparin as competitive inhibitor

| Molecule | Inhibition of Binding (%) [1] | Inhibition of Binding (%) [2] | Inhibition of Binding (%) [3] | loss of binding activity in comparison to the full length protein [4] | % Inhibition of invasion of HepG2 cells by P. falciparum sporozoites, FRAP2 at 10 µg/ml [5] | % Inhibition of invasion of HepG2 cells by P. falciparum sporozoites, FRAP2 at 20 µg/ml [5] | reduction of binding activity in the presence of free heparin [6] | % Inhibition of invasion of HepG2 cells by P. falciparum sporozoites, FRAP at 10 µg/ml [5] | % Inhibition of invasion of HepG2 cells by P. falciparum sporozoites, FRAP at 20 µg/ml [5] |
| --- | --- | --- | --- | --- | --- | --- | --- | --- | --- |
| recombinant Circumsporozoite (CS) protein with a polyhistidine tag at the carboxyl terminus | 48.1% | 59.1% | 57.7% |  |  |  |  |  |  |
| FRAP2, truncated P. falciparum FRAP containing amino acids 1-87, with C-terminal polyhistidine tag (protein) MKNRFYYNLIIKRLYTRSGGLRKPQKVTNDPESINRKVYWCFEHKPVKRTIINLIYSHNELKIFSNLLNHPTVGSSLIHELSLDGPY | 42.3% | 49.4% | 41.4% | 50% | 88.1% | 92.4% | 60% |  |  |
| Plasmodium falciparum Fasciclin Related Adhesive Protein (FRAP), recombinant full length protein (amino acids 1-205) with C-terminal polyhistidine tag (protein) MKNRFYYNLIIKRLYTRSGGLRKPQKVTNDPESINRKVYWCFEHKPVKRTIINLIYSHNELKIFSNLLNHPTVGSSLIHELSLDGPYTAFFPSNEAMQLINIESFNKLYNDENKLSEFVLNHVTKEYWLYRDLYGSSYQPWLMYNEKREAPEKLRNLLNNDLIVKIEGEFKHCNHSIYLNGSKIIRPNMKCHNGVVHIVDKPIIF | 39.4% | 47.8% | 42.1% |  |  |  | 55% | 80.9% | 89.5% |
